Legend:
MDS BM-MNC = assay: Pyroptosis flow cytometry panel, MDS BM-MNC incubated with autologous BM plasma; assay type: cell-based, human
Description: For human samples, treated and untreated BM-MNC were incubated overnight in IMDM, supplemented with 10% autologous BM plasma. Subsequently, cells were harvested, washed twice in 1×PBS, and stained with LIVE/DEAD Violet fluorescent reactive dye according to the manufacturer's protocol (Life Technologies). Cells were resuspended in 1×PBS with 2% BSA, and incubated at room temperature for 15 minutes to block non-specific binding. After washing, cells were stained with 30×FAM-FLICA® Caspase-1 and Caspase-3/7 solution at a ratio of 1:30 for 2 hours at 37° C. Cells were washed and stained for cell surface receptors using CD38:PE-CF594, CD33:BV711, CD34:APC (BD Biosciences), and CD71:PE-Cyanine7 (eBioscience). All antibodies were diluted 1:20, and cells were stained for 30 minutes at 4° C. Cells were washed, resuspended in 1× binding buffer, and stained with Annexin-V:Cy5.5 at a dilution of 1:20 for 15 minutes at room temperature (BD Biosciences). 1× binding buffer was added to a final volume of 400 μL. Sample acquisitions were carried out using a BD LSR II flow cytometer and FACSDiva software (BD Biosciences). Calibration of the flow cytometer was carried out prior to each experiment using Rainbow Mid-Range Fluorescent Particles (BD Biosciences). To establish fluorescence compensation settings, ArC Amine Reactive Compensation Beads were used for LIVE/DEAD Violet staining (Life Technologies), and BD CompBead Plus Anti-Mouse Ig κ/Negative Control (BSA) Compensation Plus Particles were used for surface receptor conjugates (BD Biosciences). Data were analyzed using FlowJo 9.7.5 software (FlowJo, LLC, Ashland, Oreg.).

lower-risk MDS BM-MNC = assay: qPCR of pyroptosis-related gene expression in lower-risk MDS BM-MNC; assay type: cell-based, human; details: 24 hours, versus autologous BM plasma alone, n=5
Description: PCR RNA was isolated from BM-MNC using the RNeasy Mini Kit (Qiagen). cDNA was produced using the iScript cDNA Synthesis Kit (Bio-Rad). Sequences for primers can be found in Table 1. GAPDH mRNA was used for transcript normalization. cDNA was amplified using the iQ SYBR Green Supermix and the CFX96 Real-Time PCR Detection System (Bio-Rad). PCR conditions were as follows: 10 minutes at 95° C., followed by 40 cycles of amplification (15 seconds at 95° C. and 1 minute at 60° C.). Relative gene expression was calculated using the […] method.

B1: CD33-IgG1: S100A9 high-affinity chimeric (CD33-IgG1) decoy receptor (protein)
chain: DPNFWLQVQESVTVQEGLCVLVPCTFFHPIPYYDKNSPVHGYWFREGAIISRDSPVATNKLDQEVQEETQGRFRLLGDPSRNNCSLSIVDARRRDNGSYFFRMERGSTKYSYKSPQLSVHVTDLTHRPKILIPGTLEPGHSKNLTCSVSWACEQGTPPIFSWLSAAPTSLGPRTTHSSVLIITPRPQDHGTNLTCQVKFAGAGVTTERTIQLNVTYVPQNPTTGIFPGDGSGKQETRAGVVH
modifications: left off: a dimerising Fc or GST
MDS BM-MNC; CD33+ immature myeloids, 0.5 μg CD33-IgG1 or 0.1 μM IRAK4 inhibitor, 24 hours, autologous BM plasma, n=4
  reduction of the fraction of pyroptotic cells, maximum lineage-specific change, CD33+ cells: 68%
MDS BM-MNC; CD71+ erythroids, 0.5 μg CD33-IgG1 or 0.1 μM IRAK4 inhibitor, 24 hours, autologous BM plasma, n=4
  reduction of the fraction of pyroptotic cells, maximum lineage-specific change, CD71+ cells: 64%
MDS BM-MNC; MDS BM-MNC with autologous BM plasma (FIG. 20)
  fraction of pyroptotic cells across all lineages studied: marked reduction
MDS BM-MNC; progenitor cells (CD34+CD38+), 0.5 μg CD33-IgG1 or 0.1 μM IRAK4 inhibitor, 24 hours, autologous BM plasma, n=4
  reduction of the fraction of pyroptotic cells, maximum lineage-specific change, progenitor cells: 23%
MDS BM-MNC; short-term treatment
  MDSC fraction: significantly reduced
MDS BM-MNC; stem cells (CD34+CD38-), 0.5 μg CD33-IgG1 or 0.1 μM IRAK4 inhibitor, 24 hours, autologous BM plasma, n=4
  reduction of the fraction of pyroptotic cells, maximum lineage-specific change, stem cells: 44%
lower-risk MDS BM-MNC
  CASP1 expression: reduced
  CASP3 expression: markedly reduced
  IL-1β expression: reduced
  IL-18 expression: reduced
  NLRP3 expression: reduced
